# From the RNAGym collection of RNA variant scans (doi:10.7554/elife.80360)
# B1: Twister Ribozyme (parent)
# chain: AACACUGCCAAUGCCGGUCCCAAGCCCGGAUAAAAGUGGAGGGGGCGG
# Variants of: B1
# Experiment: self-cleavage, relative activity (ratio to wild type); higher = more cleavage; co-transcriptional
row,Variant,self-cleavage
1,A4G G39C,0.115
2,A4G G39U,0.153
3,A4G G41A,0.244
4,A4G G41C,0.181
5,A4G G42A,0.289
6,A4G G42U,0.195
7,A4G G44A,0.88
8,A4G G45C,0.294
9,A4G G45U,0.741
10,A4G G47C,0.386
11,A4G G48A,0.955
12,A4G G48C,1.18
13,A4G U6C,0.104
14,A4G U12C,0.811
15,A4G U18C,0.58
16,A4G U18G,0.0583
17,A4G U37A,0.796
18,A4G U37G,0.73
19,A4U A10G,0.125
20,A4U A11C,0.0933
21,A4U A11G,0.184
22,A4U A11U,0.193
23,A4U A22U,0.0795
24,A4U A23U,0.0527

row,Variant,self-cleavage
1,A4U A30C,0.0756
2,A4U A30G,0.176
3,A4U A33C,0.0899
4,A4U A33U,0.0597
5,A4U A34G,0.0772
6,A4U A35G,0.0949
7,A4U A40G,0.0581
8,A4U C5G,0.0771
9,A4U C5U,0.136
10,A4U C8A,0.0382
11,A4U C9A,0.0614
12,A4U C9U,0.0756
13,A4U C15A,0.0639
14,A4U C19A,0.0659
15,A4U C20G,0.0603
16,A4U C20U,0.0245
17,A4U C25G,0.0782
18,A4U C25U,0.0507
19,A4U C26G,0.0523
20,A4U C26U,0.0595
21,A4U C27G,0.115
22,A4U C27U,0.0803
23,A4U G7A,0.1
24,A4U G7C,0.0628

row,Variant,self-cleavage
1,A4U G13A,0.0571
2,A4U G16A,0.0873
3,A4U G17A,0.0705
4,A4U G17U,0.0471
5,A4U G24U,0.0752
6,A4U G28A,0.0702
7,A4U G29C,0.0635
8,A4U G29U,0.094
9,A4U G36A,0.056
10,A4U G36U,0.0439
11,A4U G38C,0.252
12,A4U G38U,0.138
13,A4U G39C,0.0848
14,A4U G39U,0.0721
15,A4U G41A,0.0938
16,A4U G41U,0.0632
17,A4U G42U,0.0714
18,A4U G43A,0.0748
19,A4U G43U,0.0514
20,A4U G44A,0.248
21,A4U G44C,0.105
22,A4U G44U,0.146
23,A4U G45A,0.105
24,A4U G45C,0.0951

row,Variant,self-cleavage
1,A4U G45U,0.124
2,A4U G47A,0.0604
3,A4U G47U,0.0997
4,A4U G48U,0.147
5,A4U U6C,0.0522
6,A4U U6G,0.0301
7,A4U U18A,0.0531
8,A4U U18C,0.027
9,A4U U18G,0.0369
10,A4U U31A,0.143
11,A4U U31G,0.161
12,A4U U37A,0.7
13,A4U U37G,0.624
14,C5A,0.66
15,C5A A10G,0.705
16,C5A A10U,0.39
17,C5A A11G,0.479
18,C5A A23C,0.0937
19,C5A A23G,0.0488
20,C5A A30U,0.498
21,C5A A32G,0.542
22,C5A A33C,0.439
23,C5A A33G,0.472
24,C5A A34G,0.41

row,Variant,self-cleavage
1,C5A A35G,0.328
2,C5A A35U,0.508
3,C5A A40G,0.0921
4,C5A C8G,0.106
5,C5A C9G,0.0413
6,C5A C14G,0.0565
7,C5A C15A,0.214
8,C5A C15G,0.0768
9,C5A C19A,0.0624
10,C5A C19U,0.424
11,C5A C20U,0.465
12,C5A C21A,0.0272
13,C5A C21G,0.113
14,C5A C21U,0.0869
15,C5A C25G,0.0605
16,C5A C26A,0.1
17,C5A C26G,0.0639
18,C5A C26U,0.0777
19,C5A C27U,0.249
20,C5A C46G,0.689
21,C5A G7C,0.0608
22,C5A G7U,0.0804
23,C5A G16A,0.301
24,C5A G16C,0.098

row,Variant,self-cleavage
1,C5A G16U,0.237
2,C5A G17A,0.0903
3,C5A G17U,0.0729
4,C5A G24A,0.0547
5,C5A G24U,0.0619
6,C5A G28A,0.232
7,C5A G28U,0.282
8,C5A G29C,0.279
9,C5A G36A,0.583
10,C5A G36U,0.689
11,C5A G41A,0.107
12,C5A G41U,0.132
13,C5A G42U,0.138
14,C5A G43C,0.118
15,C5A G45A,0.532
16,C5A G45C,0.16
17,C5A G47A,0.523
18,C5A G47C,0.199
19,C5A G48C,0.53
20,C5A U6A,0.0843
21,C5A U6C,0.112
22,C5A U6G,0.154
23,C5A U12A,0.764
24,C5A U12C,0.462

row,Variant,self-cleavage
1,C5A U18C,0.106
2,C5A U31A,0.438
3,C5A U31C,0.653
4,C5A U37A,0.547
5,C5A U37C,0.124
6,C5A U37G,0.671
7,C5G,0.85
8,C5G A10G,1.17
9,C5G A10U,0.69
10,C5G A11G,0.696
11,C5G A11U,0.665
12,C5G A22G,0.137
13,C5G A22U,0.401
14,C5G A23C,0.0471
15,C5G A23G,0.133
16,C5G A23U,0.136
17,C5G A30G,0.608
18,C5G A30U,0.883
19,C5G A32G,0.749
20,C5G A33C,0.565
21,C5G A33U,0.662
22,C5G A34C,0.117
23,C5G A34G,0.384
24,C5G A34U,0.309

row,Variant,self-cleavage
1,C5G A35U,0.637
2,C5G C8A,0.15
3,C5G C9A,0.167
4,C5G C9G,0.125
5,C5G C14U,0.793
6,C5G C15G,0.0337
7,C5G C20G,0.0308
8,C5G C20U,0.65
9,C5G C21G,0.155
10,C5G C25U,0.411
11,C5G C26A,0.126
12,C5G C26U,0.104
13,C5G C27G,0.0623
14,C5G C46A,0.776
15,C5G C46U,0.77
16,C5G G7C,0.0519
17,C5G G13A,0.115
18,C5G G13C,0.0798
19,C5G G16C,0.0784
20,C5G G16U,0.0938
21,C5G G17A,0.0746
22,C5G G24C,0.118
23,C5G G24U,0.112
24,C5G G28C,0.212

row,Variant,self-cleavage
1,C5G G28U,0.279
2,C5G G29A,0.458
3,C5G G29C,0.306
4,C5G G29U,0.584
5,C5G G36A,0.732
6,C5G G36C,0.966
7,C5G G38A,0.298
8,C5G G39C,0.106
9,C5G G39U,0.134
10,C5G G41A,0.168
11,C5G G43A,0.153
12,C5G G43C,0.122
13,C5G G43U,0.136
14,C5G G45C,0.222
15,C5G G47A,0.547
16,C5G G48U,0.627
17,C5G U6A,0.404
18,C5G U6G,0.232
19,C5G U12A,0.821
20,C5G U12C,0.896
21,C5G U18A,0.104
22,C5G U18C,0.196
23,C5G U18G,0.0734
24,C5G U31A,0.634

row,Variant,self-cleavage
1,C5G U31C,0.584
2,C5G U31G,0.757
3,C5G U37A,0.404
4,C5U,0.887
5,C5U A10C,1.06
6,C5U A10G,0.869
7,C5U A10U,0.816
8,C5U A11C,0.541
9,C5U A11U,0.564
10,C5U A22C,0.963
11,C5U A22U,0.526
12,C5U A23C,0.116
13,C5U A23G,0.23
14,C5U A23U,0.306
15,C5U A30C,0.542
16,C5U A32G,0.795
17,C5U A34G,0.511
18,C5U A34U,0.631
19,C5U A35C,0.82
20,C5U A35U,0.91
21,C5U A40U,0.146
22,C5U C8A,0.193
23,C5U C8G,0.132
24,C5U C9G,0.342

row,Variant,self-cleavage
1,C5U C15A,0.385
2,C5U C15G,0.0698
3,C5U C15U,0.762
4,C5U C19G,0.107
5,C5U C20G,0.102
6,C5U C21A,0.126
7,C5U C21U,0.0809
8,C5U C25A,0.0792
9,C5U C26A,0.148
10,C5U C26G,0.0996
11,C5U C26U,0.0759
12,C5U C27U,0.483
13,C5U C46G,0.776
14,C5U C46U,0.825
15,C5U G13C,0.13
16,C5U G16A,0.584
17,C5U G16C,0.159
18,C5U G17C,0.0605
19,C5U G17U,0.116
20,C5U G24A,0.058
21,C5U G24C,0.0979
22,C5U G28C,0.434
23,C5U G28U,0.67
24,C5U G29A,0.739

row,Variant,self-cleavage
1,C5U G36U,0.644
2,C5U G39A,0.167
3,C5U G39U,0.175
4,C5U G41A,0.214
5,C5U G42A,0.184
6,C5U G42C,0.287
7,C5U G42U,0.134
8,C5U G43A,0.141
9,C5U G44C,0.864
10,C5U G45A,0.605
11,C5U G48C,0.883
12,C5U U6A,0.674
13,C5U U6G,0.261
14,C5U U12A,0.943
15,C5U U18C,0.24
16,C5U U37A,0.547
17,C5U U37C,0.283
18,C5U U37G,0.432
19,U6A,1.03
20,U6A A10G,1.22
21,U6A A10U,1
22,U6A A11U,1.03
23,U6A A22C,0.936
24,U6A A22U,0.816

row,Variant,self-cleavage
1,U6A A23C,0.097
2,U6A A23G,0.14
3,U6A A23U,0.191
4,U6A A30U,0.981
5,U6A A32G,0.987
6,U6A A32U,0.862
7,U6A A33G,0.881
8,U6A A34U,1.04
9,U6A A35C,1.04
10,U6A A40U,0.116
11,U6A C8A,0.104
12,U6A C8U,0.175
13,U6A C9G,0.244
14,U6A C14G,0.124
15,U6A C15U,0.649
16,U6A C20A,0.0593
17,U6A C20G,0.0822
18,U6A C26A,0.144
19,U6A C26G,0.132
20,U6A C27A,0.119
21,U6A C27G,0.11
22,U6A C27U,0.682
23,U6A C46A,0.809
24,U6A C46G,0.988

row,Variant,self-cleavage
1,U6A C46U,1.04
2,U6A G7C,0.234
3,U6A G13A,0.195
4,U6A G13C,0.072
5,U6A G17A,0.181
6,U6A G17C,0.0763
7,U6A G24C,0.399
8,U6A G24U,0.0898
9,U6A G28A,0.616
10,U6A G28C,0.524
11,U6A G29A,0.787
12,U6A G29U,0.767
13,U6A G36U,0.202
14,U6A G38A,0.738
15,U6A G38C,0.594
16,U6A G38U,0.188
17,U6A G39A,0.255
18,U6A G39C,0.183
19,U6A G41A,0.203
20,U6A G41C,0.182
21,U6A G41U,0.204
22,U6A G42C,0.291
